In patent publication US20220204611A1 (Amgen, published 2022):

Assays:
human TREM2 [1] = target: T1, human TREM2 (human, UniProt Q9NZC2 19-174, limits assumed); test: yeast-displayed Fab FACS, 2nd screen 100 nM
T1 sequence: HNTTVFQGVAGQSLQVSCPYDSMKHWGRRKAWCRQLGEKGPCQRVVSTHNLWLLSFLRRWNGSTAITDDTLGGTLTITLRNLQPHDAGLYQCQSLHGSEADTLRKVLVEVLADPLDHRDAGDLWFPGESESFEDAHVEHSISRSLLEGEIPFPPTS

human TREM2 [2] = target: T1, human TREM2; test: yeast-displayed Fab FACS, 1st screen 110 nM

Row | Binder | binding signal fold over 6E7 parental (human TREM2 [1]) [fold] | binding signal fold over 6E7 parental (human TREM2 [2]) [fold]
1 | V43 (Fab, V domains shown) VH: EVQLVQSGAEVKKPGESLKISCKGSGYSFTSYWIAWVRQMPGKGLEWMGIIYPGDSGTRYSPSFQGQVTISADKSISTAYLQWSSLKASDTAMYFCARQRTFYYDSSDYFDYWGQGTLVTVSS VL: DIQMTQSPSSVSASVGDRVTITCRASQGISSWLAWYQQKPGKAPKLLIYAASSLQNGVPSRFSGSGSGTDFTLTISSLQPEDFATYFCQQADSFPRTFGQGTKLEIK | 0.33 | 0.2
2 | V44 (Fab, V domains shown) VH: EVQLVQSGAEVKKPGESLKISCKGSGYSFTSYWIAWVRQMPGKGLEWMGIIYPSDSDTRYSPSFQGQVTISADKSISTAYLQWSSLKASDTAMYFCARQRTFYYDSSDYFDYWGQGTLVTVSS VL: DIQMTQSPSSVSASVGDRVTITCRASQGISSWLAWYQQKPGKAPKLLIYAASSLQNGVPSRFSGSGSGTDFTLTISSLQPEDFATYFCQQADSFPRTFGQGTKLEIK | 0.52 | 0.65
3 | V45 (Fab, V domains shown) VH: EVQLVQSGAEVKKPGESLKISCKGSGYSFTSYWIAWVRQMPGKGLEWMGIIYPGDSDTRYSPSFQGQVTISADKSISTAYLQWSSLKASDTAMYFCARQRTFYYDSSDYFDYWGQGTLVTVSS VL: DIQMTQSPSSVSASVGDRVTITCRASQGISSFLAWYQQKPGKAPKLLIYAASSLQNGVPSRFSGSGSGTDFTLTISSLQPEDFATYFCQQADSFPRTFGQGTKLEIK | 0.53 | 0.43
4 | V46 (Fab, V domains shown) VH: EVQLVQSGAEVKKPGESLKISCKGSGYSFTSYWIAWVRQMPGKGLEWMGIIYPGDSDTRYSPSFQGQVTISADKSISTAYLQWSSLKASDTAMYFCARQRTFYYDSSDYFDYWGQGTLVTVSS VL: DIQMTQSPSSVSASVGDRVTITCRASQGISSWLAWYQQKPGKAPKLLIYAASTLQNGVPSRFSGSGSGTDFTLTISSLQPEDFATYFCQQADSFPRTFGQGTKLEIK | 0.96 | 0.83
5 | V47 (Fab, V domains shown) VH: EVQLVQSGAEVKKPGESLKISCKGSGYSFTSYWIAWVRQMPGKGLEWMGIIYPGDSDTRYSPSFQGQVTISADKSISTAYLQWSSLKASDTAMYFCARQRTFYYDSSDYFDYWGQGTLVTVSS VL: DIQMTQSPSSVSASVGDRVTITCRASQGISSWLAWYQQKPGKAPKLLIYAASSLQNGVPSRFSGSGSGTDFTLTISSLQPEDFATYFCQQADSFPMTFGQGTKLEIK | 0.47 | 0.42
6 | V54 (Fab, V domains shown) VH: EVQLVQSGAEVKKPGESLKISCKGSGYSFTSQWIAWVRQMPGKGLEWMGIIYPGDSDTRYSPSFQGQVTISADKSISTAYLQWSSLKASDTAMYFCARQRTFYYDSSDYFDYWGQGTLVTVSS VL: DIQMTQSPSSVSASVGDRVTITCRASQGISSWLAWYQQKPGKAPKLLIYAASSLQNGVPSRFSGSGSGTDFTLTISSLQPEDFATYFCQQADSFPRTFGQGTKLEIK | 0.54 | 0.55
7 | V55 (Fab, V domains shown) VH: EVQLVQSGAEVKKPGESLKISCKGSGYSFTSYWIAWVRQMPGKGLEWMGIIYPGDSDTIYSPSHQGQVTISADKSISTAYLQWSSLKASDTAMYFCARQRTFYYDSSDYFDYWGQGTLVTVSS VL: DIQMTQSPSSVSASVGDRVTITCRASQGISSWLAWYQQKPGKAPKLLIYAASSLQNGVPSRFSGSGSGTDFTLTISSLQPEDFATYFCQQADSFPRTFGQGTKLEIK | 0.66 | 0.24
8 | V56 (Fab, V domains shown) VH: EVQLVQSGAEVKKPGESLKISCKGSGYSFTSYWIAWVRQMPGKGLEWMGIIYPGDSDTRYQPSFQGQVTISADKSISTAYLQWSSLKASDTAMYFCARQRTFYYDSSDYFDYWGQGTLVTVSS VL: DIQMTQSPSSVSASVGDRVTITCRASQGISSWLAWYQQKPGKAPKLLIYAASSLQNGVPSRFSGSGSGTDFTLTISSLQPEDFATYFCQQADSFPRTFGQGTKLEIK | 0.59 | 0.23
9 | V57 (Fab, V domains shown) VH: EVQLVQSGAEVKKPGESLKISCKGSGYSFTSYWIAWVRQMPGKGLEWMGIIYPGDSDTRYSPSFQGQVTISADKSISTAYLQWSSLKASDTAMYFCARQRTFYYDSSDYFDYWGQGTLVTVSS VL: DIQMTQSPSSVSASVGDRVTITCAASQGISSWLAWYQQKPGKAPKLLIYAASSLQNGVPSRFSGSGSGTDFTLTISSLQPEDFATYFCQQADSFPRTFGQGTKLEIK | 0.85 | 0.84
10 | V58 (Fab, V domains shown) VH: EVQLVQSGAEVKKPGESLKISCKGSGYSFTSYWIAWVRQMPGKGLEWMGIIYPGDSDTRYSPSFQGQVTISADKSISTAYLQWSSLKASDTAMYFCARQRTFYYDSSDYFDYWGQGTLVTVSS VL: DIQMTQSPSSVSASVGDRVTITCRASQGISSWLAWYQQKPGKAPKLLIYKASSLQNGVPSRFSGSGSGTDFTLTISSLQPEDFATYFCQQADSFPRTFGQGTKLEIK | 0.68 | 0.28
11 | V59 (Fab, V domains shown) VH: EVQLVQSGAEVKKPGESLKISCKGSGYSFTSYWIAWVRQMPGKGLEWMGIIYPGDSDTRYSPSFQGQVTISADKSISTAYLQWSSLKASDTAMYFCARQRTFYYDSSDYFDYWGQGTLVTVSS VL: DIQMTQSPSSVSASVGDRVTITCRASQGISSWLAWYQQKPGKAPKLLIYAASSLQNGVPSRFSGSGSGTDFTLTISSLQPEDFATYFCMQADSFPRTFGQGTKLEIK | 0.6 | 0.19
12 | V66 (Fab, V domains shown) VH: EVQLVQSGAEVKKPGESLKISCKGSGTSFTSYWIAWVRQMPGKGLEWMGIIYPGDSDTRYSPSFQGQVTISADKSISTAYLQWSSLKASDTAMYFCARQRTFYYDSSDYFDYWGQGTLVTVSS VL: DIQMTQSPSSVSASVGDRVTITCRASQGISSWLAWYQQKPGKAPKLLIYAASSLQNGVPSRFSGSGSGTDFTLTISSLQPEDFATYFCQQADSFPRTFGQGTKLEIK | 0.74 | 0.25
13 | V67 (Fab, V domains shown) VH: EVQLVQSGAEVKKPGESLKISCKGSGYSFTSYWIAWVRQMPGKGLEWMGMIYPGDSDTRYSPSFQGQVTISADKSISTAYLQWSSLKASDTAMYFCARQRTFYYDSSDYFDYWGQGTLVTVSS VL: DIQMTQSPSSVSASVGDRVTITCRASQGISSWLAWYQQKPGKAPKLLIYAASSLQNGVPSRFSGSGSGTDFTLTISSLQPEDFATYFCQQADSFPRTFGQGTKLEIK | 0.84 | 0.8
14 | V68 (Fab, V domains shown) VH: EVQLVQSGAEVKKPGESLKISCKGSGYSFTSYWIAWVRQMPGKGLEWMGIIYPGDSDTRYSPSFQGQVTISADKSISTAYLQWSSLKASDTAMYFCARQRTFRYDSSDYFDYWGQGTLVTVSS VL: DIQMTQSPSSVSASVGDRVTITCRASQGISSWLAWYQQKPGKAPKLLIYAASSLQNGVPSRFSGSGSGTDFTLTISSLQPEDFATYFCQQADSFPRTFGQGTKLEIK | 0.43 | 0.44
15 | V69 (Fab, V domains shown) VH: EVQLVQSGAEVKKPGESLKISCKGSGYSFTSYWIAWVRQMPGKGLEWMGIIYPGDSDTRYSPSFQGQVTISADKSISTAYLQWSSLKASDTAMYFCARQRTFYYDSSDYFDYWGQGTLVTVSS VL: DIQMTQSPSSVSASVGDRVTITCRASQGISSYLAWYQQKPGKAPKLLIYAASSLQNGVPSRFSGSGSGTDFTLTISSLQPEDFATYFCQQADSFPRTFGQGTKLEIK | 0.4 | 0.41
16 | V70 (Fab, V domains shown) VH: EVQLVQSGAEVKKPGESLKISCKGSGYSFTSYWIAWVRQMPGKGLEWMGIIYPGDSDTRYSPSFQGQVTISADKSISTAYLQWSSLKASDTAMYFCARQRTFYYDSSDYFDYWGQGTLVTVSS VL: DIQMTQSPSSVSASVGDRVTITCRASQGISSWLAWYQQKPGKAPKLLIYAAGSLQNGVPSRFSGSGSGTDFTLTISSLQPEDFATYFCQQADSFPRTFGQGTKLEIK | 0.84 | 0.79
17 | V71 (Fab, V domains shown) VH: EVQLVQSGAEVKKPGESLKISCKGSGYSFTSYWIAWVRQMPGKGLEWMGIIYPGDSDTRYSPSFQGQVTISADKSISTAYLQWSSLKASDTAMYFCARQRTFYYDSSDYFDYWGQGTLVTVSS VL: DIQMTQSPSSVSASVGDRVTITCRASQGISSWLAWYQQKPGKAPKLLIYAASSLQNGVPSRFSGSGSGTDFTLTISSLQPEDFATYFCQQADSEPRTFGQGTKLEIK | 0.48 | 0.37
18 | V78 (Fab, V domains shown) VH: EVQLVQSGAEVKKPGESLKISCKGSGYRFTSYWIAWVRQMPGKGLEWMGIIYPGDSDTRYSPSFQGQVTISADKSISTAYLQWSSLKASDTAMYFCARQRTFYYDSSDYFDYWGQGTLVTVSS VL: DIQMTQSPSSVSASVGDRVTITCRASQGISSWLAWYQQKPGKAPKLLIYAASSLQNGVPSRFSGSGSGTDFTLTISSLQPEDFATYFCQQADSFPRTFGQGTKLEIK | 1.11 | 0.86
19 | V79 (Fab, V domains shown) VH: EVQLVQSGAEVKKPGESLKISCKGSGYSFTSYWIAWVRQMPGKGLEWMGIIYPGDSDTNYSPSFQGQVTISADKSISTAYLQWSSLKASDTAMYFCARQRTFYYDSSDYFDYWGQGTLVTVSS VL: DIQMTQSPSSVSASVGDRVTITCRASQGISSWLAWYQQKPGKAPKLLIYAASSLQNGVPSRFSGSGSGTDFTLTISSLQPEDFATYFCQQADSFPRTFGQGTKLEIK | 0.52 | 0.7
